# Numbered stars: 1 amine (or outer) side, 2 acyl side, 3 side chain; on linkers, the order of the positions; unused ones are H or OH. Bridge positions count the residues as written; N and C are the ends. Side chains are listed from the residue outwards. Ends that are not written are not given here. * marks the point of attachment. C20 diacid = O=C(O)CCCCCCCCCCCCCCCCCCC(=O)*; γGlu = O=C(O)[C@H](CCC(=O)[*:2])N[*:1]; AEEA = NCCOCCOCC(=O)O
# T1: human calcitonin receptor (human, UniProt P30988 25-474)
# T1 sequence (looked up): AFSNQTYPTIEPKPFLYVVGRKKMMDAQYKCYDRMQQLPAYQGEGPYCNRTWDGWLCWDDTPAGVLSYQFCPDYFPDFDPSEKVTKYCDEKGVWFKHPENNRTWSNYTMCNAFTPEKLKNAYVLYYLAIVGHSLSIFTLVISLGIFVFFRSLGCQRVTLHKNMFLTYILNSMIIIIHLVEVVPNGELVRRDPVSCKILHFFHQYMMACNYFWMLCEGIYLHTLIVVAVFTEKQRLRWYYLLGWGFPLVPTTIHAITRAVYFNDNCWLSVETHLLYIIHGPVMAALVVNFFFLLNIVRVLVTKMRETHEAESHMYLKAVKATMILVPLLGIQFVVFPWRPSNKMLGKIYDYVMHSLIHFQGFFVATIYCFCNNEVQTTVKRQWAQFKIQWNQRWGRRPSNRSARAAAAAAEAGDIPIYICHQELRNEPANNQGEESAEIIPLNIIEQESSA
# T2: human calcitonin receptor (human, UniProt P30988 25-474)
# T2 construct: whole, on cells; Used as membranes prepared from the transfected cells (Assay VII); also called hCTR; hCT
# T2 sequence (looked up): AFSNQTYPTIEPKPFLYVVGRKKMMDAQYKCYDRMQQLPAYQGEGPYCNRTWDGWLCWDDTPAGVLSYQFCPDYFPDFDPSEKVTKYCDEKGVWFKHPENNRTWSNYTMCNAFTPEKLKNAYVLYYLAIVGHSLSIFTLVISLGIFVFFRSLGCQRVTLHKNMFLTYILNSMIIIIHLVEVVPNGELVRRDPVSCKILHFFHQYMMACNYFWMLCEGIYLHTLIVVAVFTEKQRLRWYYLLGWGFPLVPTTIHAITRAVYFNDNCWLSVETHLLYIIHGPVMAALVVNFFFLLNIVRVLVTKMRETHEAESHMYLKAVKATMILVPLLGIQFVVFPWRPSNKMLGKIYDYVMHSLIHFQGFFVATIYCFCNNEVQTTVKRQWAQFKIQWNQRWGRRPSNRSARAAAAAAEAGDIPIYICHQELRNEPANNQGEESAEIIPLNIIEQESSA
# Molecular target: T1, human calcitonin receptor
# Test: cell-based or functional assay
row,hCTR funct. EC50,Binder
1,0.899 nM,"{C20 diacid-γGlu}-GRCNTATCATQRLANFLRHSSPNFGAIPSSTNVGSNTY-NH2 (disulfide 3-8; SMILES CC[C@H](C)[C@H](NC(=O)[C@H](C)NC(=O)CNC(=O)[C@H](Cc1ccccc1)NC(=O)[C@H](CC(N)=O)NC(=O)[C@@H]1CCCN1C(=O)[C@H](CO)NC(=O)[C@H](CO)NC(=O)[C@H](Cc1c[nH]cn1)NC(=O)[C@H](CCCNC(=N)N)NC(=O)[C@H](CC(C)C)NC(=O)[C@H](Cc1ccccc1)NC(=O)[C@H](CC(N)=O)NC(=O)[C@H](C)NC(=O)[C@H](CC(C)C)NC(=O)[C@H](CCCNC(=N)N)NC(=O)[C@H](CCC(N)=O)NC(=O)[C@@H](NC(=O)[C@H](C)NC(=O)[C@@H]1CSSC[C@H](NC(=O)[C@H](CCCNC(=N)N)NC(=O)CNC(=O)CC[C@H](NC(=O)CCCCCCCCCCCCCCCCCCC(=O)O)C(=O)O)C(=O)N[C@@H](CC(N)=O)C(=O)N[C@@H]([C@@H](C)O)C(=O)N[C@@H](C)C(=O)N[C@@H]([C@@H](C)O)C(=O)N1)[C@@H](C)O)C(=O)N1CCC[C@H]1C(=O)N[C@@H](CO)C(=O)N[C@@H](CO)C(=O)N[C@H](C(=O)N[C@@H](CC(N)=O)C(=O)N[C@H](C(=O)NCC(=O)N[C@@H](CO)C(=O)N[C@@H](CC(N)=O)C(=O)N[C@H](C(=O)N[C@@H](Cc1ccc(O)cc1)C(N)=O)[C@@H](C)O)C(C)C)[C@@H](C)O, analogue of human amylin, extended by Gly at the N-terminus; also called compound 46) [N^-1-[(4S)-4-carboxy-4-(19-carboxynonadecanoylamino)butanoyl]-Gly[Arg1,Arg17,Pro21,Pro27]-h-amylin]"
2,1.97 nM,"K([γGlu-C20 diacid])CNTATCATQRLANFLRHSSPNFGAIPSSTNVGSNTY-NH2 (disulfide 2-7; N-terminus assumed; SMILES CC[C@H](C)[C@H](NC(=O)[C@H](C)NC(=O)CNC(=O)[C@H](Cc1ccccc1)NC(=O)[C@H](CC(N)=O)NC(=O)[C@@H]1CCCN1C(=O)[C@H](CO)NC(=O)[C@H](CO)NC(=O)[C@H](Cc1c[nH]cn1)NC(=O)[C@H](CCCNC(=N)N)NC(=O)[C@H](CC(C)C)NC(=O)[C@H](Cc1ccccc1)NC(=O)[C@H](CC(N)=O)NC(=O)[C@H](C)NC(=O)[C@H](CC(C)C)NC(=O)[C@H](CCCNC(=N)N)NC(=O)[C@H](CCC(N)=O)NC(=O)[C@@H](NC(=O)[C@H](C)NC(=O)[C@@H]1CSSC[C@H](NC(=O)[C@@H](N)CCCCNC(=O)CC[C@H](NC(=O)CCCCCCCCCCCCCCCCCCC(=O)O)C(=O)O)C(=O)N[C@@H](CC(N)=O)C(=O)N[C@@H]([C@@H](C)O)C(=O)N[C@@H](C)C(=O)N[C@@H]([C@@H](C)O)C(=O)N1)[C@@H](C)O)C(=O)N1CCC[C@H]1C(=O)N[C@@H](CO)C(=O)N[C@@H](CO)C(=O)N[C@H](C(=O)N[C@@H](CC(N)=O)C(=O)N[C@H](C(=O)NCC(=O)N[C@@H](CO)C(=O)N[C@@H](CC(N)=O)C(=O)N[C@H](C(=O)N[C@@H](Cc1ccc(O)cc1)C(N)=O)[C@@H](C)O)C(C)C)[C@@H](C)O, analogue of human amylin; also called compound 48) [N^ε1-[(4S)-4-carboxy-4-(19-carboxynonadecanoylamino)butanoyl]-[Arg17,Pro21,Pro27]-h-amylin]"

# The next lines start with the binder.
row,Binder,hCTR funct. EC50
1,"K([γGlu-C20 diacid])RCNTATCATQRLANFLRHSSPNFGAIPSSTNVGSHTY-NH2 (disulfide 3-8; N-terminus assumed; SMILES CC[C@H](C)[C@H](NC(=O)[C@H](C)NC(=O)CNC(=O)[C@H](Cc1ccccc1)NC(=O)[C@H](CC(N)=O)NC(=O)[C@@H]1CCCN1C(=O)[C@H](CO)NC(=O)[C@H](CO)NC(=O)[C@H](Cc1c[nH]cn1)NC(=O)[C@H](CCCNC(=N)N)NC(=O)[C@H](CC(C)C)NC(=O)[C@H](Cc1ccccc1)NC(=O)[C@H](CC(N)=O)NC(=O)[C@H](C)NC(=O)[C@H](CC(C)C)NC(=O)[C@H](CCCNC(=N)N)NC(=O)[C@H](CCC(N)=O)NC(=O)[C@@H](NC(=O)[C@H](C)NC(=O)[C@@H]1CSSC[C@H](NC(=O)[C@H](CCCNC(=N)N)NC(=O)[C@@H](N)CCCCNC(=O)CC[C@H](NC(=O)CCCCCCCCCCCCCCCCCCC(=O)O)C(=O)O)C(=O)N[C@@H](CC(N)=O)C(=O)N[C@@H]([C@@H](C)O)C(=O)N[C@@H](C)C(=O)N[C@@H]([C@@H](C)O)C(=O)N1)[C@@H](C)O)C(=O)N1CCC[C@H]1C(=O)N[C@@H](CO)C(=O)N[C@@H](CO)C(=O)N[C@H](C(=O)N[C@@H](CC(N)=O)C(=O)N[C@H](C(=O)NCC(=O)N[C@@H](CO)C(=O)N[C@@H](Cc1c[nH]cn1)C(=O)N[C@H](C(=O)N[C@@H](Cc1ccc(O)cc1)C(N)=O)[C@@H](C)O)C(C)C)[C@@H](C)O, analogue of human amylin, extended by Lys at the N-terminus; also called compound 44)",4.75 nM
2,"K([AEEA-γGlu-C20 diacid])RCNTATCATQRLANFLRHSSPNFGAIPSSTNVGSHTY-NH2 (disulfide 3-8; N-terminus assumed; SMILES CC[C@H](C)[C@H](NC(=O)[C@H](C)NC(=O)CNC(=O)[C@H](Cc1ccccc1)NC(=O)[C@H](CC(N)=O)NC(=O)[C@@H]1CCCN1C(=O)[C@H](CO)NC(=O)[C@H](CO)NC(=O)[C@H](Cc1c[nH]cn1)NC(=O)[C@H](CCCNC(=N)N)NC(=O)[C@H](CC(C)C)NC(=O)[C@H](Cc1ccccc1)NC(=O)[C@H](CC(N)=O)NC(=O)[C@H](C)NC(=O)[C@H](CC(C)C)NC(=O)[C@H](CCCNC(=N)N)NC(=O)[C@H](CCC(N)=O)NC(=O)[C@@H](NC(=O)[C@H](C)NC(=O)[C@@H]1CSSC[C@H](NC(=O)[C@H](CCCNC(=N)N)NC(=O)[C@@H](N)CCCCNC(=O)COCCOCCNC(=O)CC[C@H](NC(=O)CCCCCCCCCCCCCCCCCCC(=O)O)C(=O)O)C(=O)N[C@@H](CC(N)=O)C(=O)N[C@@H]([C@@H](C)O)C(=O)N[C@@H](C)C(=O)N[C@@H]([C@@H](C)O)C(=O)N1)[C@@H](C)O)C(=O)N1CCC[C@H]1C(=O)N[C@@H](CO)C(=O)N[C@@H](CO)C(=O)N[C@H](C(=O)N[C@@H](CC(N)=O)C(=O)N[C@H](C(=O)NCC(=O)N[C@@H](CO)C(=O)N[C@@H](Cc1c[nH]cn1)C(=O)N[C@H](C(=O)N[C@@H](Cc1ccc(O)cc1)C(N)=O)[C@@H](C)O)C(C)C)[C@@H](C)O, analogue of human amylin, extended by Lys at the N-terminus; also called compound 45)",10.1 nM

# Molecular target: T2, human calcitonin receptor
# Test: ratio IC50 human calcitonin receptor / IC50 human amylin receptor (Assays VII and V)
# Protocol: The resulting pellet was resuspended, homogenized and centrifuged (20.000 rpm, 15 min) in a buffer containing 20 mM Na-HEPES and 0.1 mM EDTA (pH 7.4, buffer 2). The resulting pellet was resuspended in buffer 2 and protein concentration was measured (BCA protein Assay, Pierce). The homogenate was kept cold during the whole procedure. The membranes were kept at −80° C. until use. The assay was performed in a 384 well Optiplate (PerkinElmer) in a total volume of 40 ul. Membranes were mixed with SPA beads. Final concentration of membranes 35 ng/μL final and SPA beads was 0.05 mg/well. Test-compounds were dissolved in DMSO and further diluted in assay buffer (50 mM Hepes, pH 7.4, 1 mM CaCl2, 5 mM MgCl₂, 0.1% OA and 0.02% Tween20). […] The final mixture was incubated with shaking at 400 rpm for 120 min at 25° C. prior to centrifugation (1500 rpm, 10 min). Samples were analyzed on TopCounter™ (Packard). The IC₅₀ was calculated using (one site binding competition analysis) GraphPad Prism5 as a measure of receptor affinity.
# Membranes were prepared in the following way; the cells were rinsed with PBS and incubated with Versene for approximately 5 min before harvesting. The cells were flushed with PBS and the cell-suspension was centrifuged for 5 min at 1000 rpm. Cells were homogenized (Ultrathurrax) in a buffer containing 20 mM Na-HEPES and 10 mM EDTA (pH 7.4) and centrifuged at 20.000 rpm for 15 min. The resulting pellet was resuspended, homogenized and centrifuged (20.000 rpm, 15 min) in a buffer containing 20 mM Na-HEPES and 0.1 mM EDTA (pH 7.4, buffer 2). The resulting pellet was resuspended in buffer 2 and protein concentration was measured (BCA protein Assay, Pierce). The homogenate was kept cold during the whole procedure. The membranes were kept at −80° C. until use. Assay was performed in a 384 well Optiplate (PerkinElmer) in a total volume of 40 ul. Membranes were mixed with SPA beads.
row,Ratio hCT/hAmylin binding,Binder
1,8,"KCNTATCATQRLAEFLRHSSPNFGAIPSSTNVGSNTY (C20 diacid-gGlu acylated on the alpha amino group of the N-terminal residue (Lys 1); disulfide Cys2-Cys7; C-terminal amide, Derivative of human amylin; also called compound 9) [N^α1-[(4S)-4-carboxy-4-(19-carboxynonadecanoylamino)butanoyl]-[Glu14,Arg17,Pro21,Pro27]-h-amylin]"
2,1.2,"{C20 diacid-γGlu}-KCNTATCATQRLADFLRHSSPNFGAIPSSTNVGSNTP-NH2 (disulfide 2-7; SMILES CC[C@H](C)[C@H](NC(=O)[C@H](C)NC(=O)CNC(=O)[C@H](Cc1ccccc1)NC(=O)[C@H](CC(N)=O)NC(=O)[C@@H]1CCCN1C(=O)[C@H](CO)NC(=O)[C@H](CO)NC(=O)[C@H](Cc1c[nH]cn1)NC(=O)[C@H](CCCNC(=N)N)NC(=O)[C@H](CC(C)C)NC(=O)[C@H](Cc1ccccc1)NC(=O)[C@H](CC(=O)O)NC(=O)[C@H](C)NC(=O)[C@H](CC(C)C)NC(=O)[C@H](CCCNC(=N)N)NC(=O)[C@H](CCC(N)=O)NC(=O)[C@@H](NC(=O)[C@H](C)NC(=O)[C@@H]1CSSC[C@H](NC(=O)[C@H](CCCCN)NC(=O)CC[C@H](NC(=O)CCCCCCCCCCCCCCCCCCC(=O)O)C(=O)O)C(=O)N[C@@H](CC(N)=O)C(=O)N[C@@H]([C@@H](C)O)C(=O)N[C@@H](C)C(=O)N[C@@H]([C@@H](C)O)C(=O)N1)[C@@H](C)O)C(=O)N1CCC[C@H]1C(=O)N[C@@H](CO)C(=O)N[C@@H](CO)C(=O)N[C@H](C(=O)N[C@@H](CC(N)=O)C(=O)N[C@H](C(=O)NCC(=O)N[C@@H](CO)C(=O)N[C@@H](CC(N)=O)C(=O)N[C@H](C(=O)N1CCC[C@H]1C(N)=O)[C@@H](C)O)C(C)C)[C@@H](C)O, Derivative of human amylin; also called compound 10)"
